Results reported in PMC9599297, “Graphitic Carbon Nitride and IGZO Bio-FET for Rapid Diagnosis of Myocardial Infarction”.

Target: cardiac troponin I (cTnI) (UniProt P19429 2-210)
Assay: FET aptasensor (IGZO/PCN-Au NPs), drain current change; 47% current change; response 0.01-1000 ng/mL, LOD 0.0066 ng/mL (no Kd); 10 mM PBS pH 7.4 (PBS tablets: 2.7 mM KCl, 137 mM NaCl), 10 min incubation, water wash; surface blocked with MCH and 0.10 mg/mL BSA; temperature not stated
Conditions: protein: commercial

Chain of cardiac troponin I (cTnI) (P19429 2-210): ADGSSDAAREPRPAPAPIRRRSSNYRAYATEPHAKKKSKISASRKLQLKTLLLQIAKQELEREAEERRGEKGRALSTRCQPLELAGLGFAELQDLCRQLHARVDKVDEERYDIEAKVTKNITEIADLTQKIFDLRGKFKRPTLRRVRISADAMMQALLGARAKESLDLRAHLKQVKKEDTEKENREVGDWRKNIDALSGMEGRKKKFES

CGTGCAGTACGCCAACCTTTCTCATGCGCTGCCCCTTA (ssDNA, ThiC6 (thiol-C6) at 5' end, immobilised on Au NPs) [Tro4 anti-cTnI DNA aptamer]
binding result: binds
